Here are results for 30 sequences from the supplement of paper PMC9170038.

The data set concerns MS2 coat protein. Nature of the data set: apparent KD of MS2 coat protein; designed switch direction (-1 OFF switch, 1 ON switch): -1; higher = weaker reporter binding. Summed up:
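Stalled E. coli RNA polymerase transcribed designed RNA switches on Illumina chips, which were then titrated with SNAP-549-labelled MS2 coat protein, doubling from 0.7 or 1.5 nM to 3 µM. Steps lasted from 0.8–1.5 h at the lowest concentration to 10–20 min at the highest. The apparent KD is each design's median over clusters of curve-fitted normalised fluorescence.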

[1] abbreviates: Eterna round: R95, input ligand: FMN 200 uM.
Where [2] appears, read: Eterna round: R95, input ligand: microRNA oligo, concentration not stated.
Setting [3] is: Eterna round: R95, input ligand: none.
Setting [4] is: input ligand: microRNA oligo, concentration not stated.

Take “AAGAAACAUGAGGAUCACCCAUGUCAGGAUAUCCGAAAAGAAAAGAAAAGAAAAGAAAGGAGAAGGGACAAAAG [Default title] (puzzle: Exclusion 1)”: the “apparent KD of MS2 coat protein” value is, setting by setting: under setting [1], 40.7 nM; under setting [2], 26.6 nM; under setting [3], 76 nM.
On to “AUUUUGUCAGGAUAUUAGUAGUAAAUGAAUAAAAUUAUUACUGAGAAGGGACAUGAGGAUCACCCAUGUGUCUU [Mat - Exclusion 4 - Eli Mod - D9] (Eterna round: R97, puzzle: Exclusion 4)”, for which the “apparent KD of MS2 coat protein” value is, setting by setting: (input ligand: FMN 200 uM) 24.1 nM; (input ligand: none) 23 nM.
As for “CCUGCACAUGAGGAUCACCCAUGUCAGGAUAUCUCGCCGUGUGGAGCAACACGGUAUAAGAGAAGGGACACGGG [Gegexeusre] (puzzle: Exclusion 1)”, the “apparent KD of MS2 coat protein” value under setting [2] turned out to be 22.8 nM.
Turning to “GCGAAAGCAAGCAAGUGAAACAUGAGGAUCACCCAUGUCCUCAUUUGUUCGUCUUAUAAGCUAUGCGAAAGCAUAGC [Sensor 3, v1 - 7] (puzzle: Sensor v3, turn-off variant 1)”, the “apparent KD of MS2 coat protein” value was 18.4 nM under setting [1], 218 nM under setting [2] and 19.4 nM under setting [3].
Regarding “ACUUAUUGAGGAUAUACAGAUUAUUACAUGAGGAUCACCCAUGUUCUUCAAUGUAUAUAUGUAGAAGGCAGAGGAA [JL-ex5-4.24 Malcolm mod] (Eterna round: R97, puzzle: Exclusion 5)”, the “apparent KD of MS2 coat protein” value is, setting by setting: (input ligand: FMN 200 uM) 87.6 nM; (input ligand: none) 39.7 nM.
As for “CGGGUGAACAGAGGAUAUCGUACAUGAGGAUCACCCAUGUAAUAAAUGAGAAUUUCGAAUGUAAUCGAGAAGGCUGGAAAACCC [Ostracism 93 - Jieux - Exclusion NG 2] (Eterna round: R96, puzzle: Exclusion NG 2)”, the “apparent KD of MS2 coat protein” value by setting is: (input ligand: FMN 200 uM) 228 nM; under setting [4], 115 nM; (input ligand: none) 128 nM.
For “GUAAUUAUAUAGGAUAUCGAUUUUAUUAUUUAACGAGAAGGAUGAACAUGAGGAUCACCCAUGUGGUAUCAUGG [JL-ex6-3.05] (puzzle: Exclusion 6)”, under setting [2], the “apparent KD of MS2 coat protein” value worked out at 138 nM.
“AUAAUAAAGGAGGAUAUCGUAUCGGAAACGAUACGAGAAGGUCUAACAUGAGGAUCACCCAUGUUCCUCAAUAA [Mat - Exclusion 6 - Eli Mod - D48] (puzzle: Exclusion 6)”: the “apparent KD of MS2 coat protein” value came out at 54.5 nM under setting [1], 35.9 nM under setting [2] and 36.1 nM under setting [3].
Consider “UUGACUGGCGAGGAUAUCUCGCAAUAGUUAGGGAGAGAAGGUGCUACAUGAGGAUCACCCAUGUCAAACGAACC [Eternabot (L1) Solution 58] (Eterna round: R97, puzzle: Exclusion 6)”, for which the “apparent KD of MS2 coat protein” value by setting is: (input ligand: FMN 200 uM) 17.7 nM; (input ligand: none) 21.9 nM.
As for “UUCUUGGCAGGAUAUGCUCUUUUAGACAUGAGGAUCACCCAUGUGUUUAUUCUUUUUUUUGCAGAAGGGCCUUAAU [JR_E5_Sub044] (puzzle: Exclusion 5)”, the “apparent KD of MS2 coat protein” value under setting [2] came out at 87.9 nM.
Regarding “GCCUCACAUGAGGAUCACCCAUGUCAGGAUAUACCCAUCCAGCGAAAUUAAAGCUGUAGUAGAAGGGACAUGCA [Bevebeis] (Eterna round: R97, puzzle: Exclusion 1)”, the “apparent KD of MS2 coat protein” value was found to be 53.7 nM (input ligand: FMN 200 uM) and 18.4 nM (input ligand: none).
For “GAUUAUGCGAGCUUUAGGGACAUGAGGAUCACCCAUGUUCGUCUUAUUGGUCUGGAUACGCUAACAUACCUAAAUCU [JMF 38] (puzzle: Sensor v3, turn-off variant 1)”, the “apparent KD of MS2 coat protein” value runs as follows: under setting [1], 21.5 nM; under setting [2], 30.6 nM; under setting [3], 24.8 nM.
Regarding “GGUGAAGCAGGAUAUGUACCAAUAUACAUGAGGAUCACCCAUGUCAUGUAGGAACUGCGUAUAGAAGGGCUUCACC [Exclusion 5 (FMN-MS2 slide v.7)] (Eterna round: R97, puzzle: Exclusion 5)”, the “apparent KD of MS2 coat protein” value by setting is: (input ligand: FMN 200 uM) 123 nM; (input ligand: none) 55 nM.
Consider “GAUAGAGAGCAGGAUAUCUUGGGUAAGUGUUGUAGAGAAGGGCUCACAUGAGGAUCACCCAUGUGGUCCUAGAU [JL Dibiri mod 08] (puzzle: Exclusion 6)”, for which the “apparent KD of MS2 coat protein” value under setting [1] came to 33.5 nM, the “apparent KD of MS2 coat protein” value under setting [2] was 14.5 nM and the “apparent KD of MS2 coat protein” value under setting [3] was 11.3 nM.
In the case of “CAGUACUGAGGAUAUACAUGAGGAUCACCCAUGUGGAGAGGAAAAGGAAGAAAAGAAGGUAGAAGGCGGUGCUG [JR_Ex3_Sub042] (Eterna round: R97, puzzle: Exclusion 3)”, the “apparent KD of MS2 coat protein” value is, setting by setting: (input ligand: FMN 200 uM) 196 nM; (input ligand: none) 40.8 nM.
In the case of “CUGAGGUAGCGGUCCUAUGACAUGAGGAUCACCCAUGUACCUUGCUACGAGCUUUUUGCUCGUCUUAUAAUUCUCAG [Mat - Sensor v3 - turn-off var 1 - JL Mod - D31] (puzzle: Sensor v3, turn-off variant 1)”, the “apparent KD of MS2 coat protein” value is, setting by setting: under setting [1], 151 nM; under setting [2], 96.5 nM; under setting [3], 247 nM.
Consider “ACUAGAUGAGGAUAUGCACAUUUUAGUGUUCCUCUAGAUUAACAUGAGGAUCACCCAUGUAGAAGGCGUCAUUU [Exclusion 2 - 13] (Eterna round: R96, puzzle: Exclusion 2)”, for which the “apparent KD of MS2 coat protein” value runs as follows: (input ligand: FMN 200 uM) 119 nM; under setting [4], 59.1 nM; (input ligand: none) 84.2 nM.
As for “CUAUUGUGAGGAUAUCAGGUGUGCUAGCGUACUGGUACAUCUGAGAAGGCACAUGAGGAUCACCCAUGUUUCUU [JL-ex4-3.20 Brourd mod] (puzzle: Exclusion 4)”, under setting [2], the “apparent KD of MS2 coat protein” value is 18.4 nM.
For “AGUGAACAUGAGGAUCACCCAUGUUAGGAUAUGUAUAAUCGACGAGCCUUUUCGUCGGGCAGAAGGGAUGGUGA [Eternabot (L2) Solution 95] (Eterna round: R97, puzzle: Exclusion 1)”, the “apparent KD of MS2 coat protein” value (input ligand: FMN 200 uM) came out at 44.7 nM and the “apparent KD of MS2 coat protein” value (input ligand: none) turned out to be 41.6 nM.
For “CUGUACUGAGGAUAUACAUGAGGAUCACCCAUGUGUCCCAGCUAGGAAACUAGCAAAGGUAGAAGGCAGUACAG [Mat - Exclusion 3 - Eli Mod - D57] (Eterna round: R97, puzzle: Exclusion 3)”, the “apparent KD of MS2 coat protein” value worked out at 302 nM (input ligand: FMN 200 uM) and 22.6 nM (input ligand: none).
Turning to “GGUUGACAUGAGGAUCACCCAUGUGAGGAUAUGCGAGAGAAAAAAGUGAGGAAGUUUAGCAGAAGGCGCUGUCG [salish99-ex1_r3_006] (puzzle: Exclusion 1)”, the “apparent KD of MS2 coat protein” value by setting is: under setting [1], 55.6 nM; under setting [2], 71 nM; under setting [3], 97.7 nM.
On the same counts, the results for “GAUUAUGCGAGCUUUAGGGACAUGAGGAUCACCCAUGUUCGUCUUAUUAGUCUAGAUGCACUGACAUACCUAAAUCU [JMF 78] (puzzle: Sensor v3, turn-off variant 1)” are 15 nM, 19.6 nM and 14.4 nM.
Regarding “ACAUGUCAUUGAGGAUAUUGCACACAUGAGGAUCACCCAUGUAAACGGAUGCUCUUACGUGGGUUCGAGAAGGCGAUGUACAUU [Ex NG2 #94] (Eterna round: R96, puzzle: Exclusion NG 2)”, the “apparent KD of MS2 coat protein” value (input ligand: FMN 200 uM) is 156 nM, the “apparent KD of MS2 coat protein” value under setting [4] amounted to 186 nM and the “apparent KD of MS2 coat protein” value (input ligand: none) worked out at 252 nM.
“UUUAAUUUUUUUUUUUUACAAGCUUUUUGCUCGUCUUAUACAUGAGGAUCACCCAUGUGGGUGGAAAGUAAAUUAUC [JMF 47] (puzzle: Sensor v3, turn-off variant 2)”: the “apparent KD of MS2 coat protein” value under setting [1] was found to be 38.9 nM, the “apparent KD of MS2 coat protein” value under setting [2] stood at 96.3 nM and the “apparent KD of MS2 coat protein” value under setting [3] was found to be 56.2 nM.
For the sequence “UUUAUCCGAGGAUAUACAGAAUGAAUGUGAAAUGAAUGAUGACAUGAGGAUCACCCAUGUAGAAGGCGGAUAUA [Default title] (Eterna round: R97, puzzle: Exclusion 2)”, the “apparent KD of MS2 coat protein” value (input ligand: FMN 200 uM) stood at 404 nM and the “apparent KD of MS2 coat protein” value (input ligand: none) is 57.8 nM.
Take “UACCUGAGGCAAAGCUUUAGGUAAACAUGAGGAUCACCCAUGUAGGAUAUGGUAGGCAAAGCUUACCAGAAGGACAUGAUAAUU [Mat - Exclusion NG 3 - Mod of JL - D35] (Eterna round: R96, puzzle: Exclusion NG 3)”: the “apparent KD of MS2 coat protein” value is 544 nM (input ligand: FMN 200 uM), 79.2 nM under setting [4] and 80.4 nM (input ligand: none).
As for “GUAGAGUAAGGAUAUGCAGAAUAGGAUAGAAUGGUUAGAAUGUAGAAGGUACAUGAGGAUCACCCAUGUAAUGU [Excluse me!!!! 10 - Jieux - Exclusion 4] (puzzle: Exclusion 4)”, the “apparent KD of MS2 coat protein” value under setting [1] amounted to 20.8 nM, the “apparent KD of MS2 coat protein” value under setting [2] came to 22.7 nM and the “apparent KD of MS2 coat protein” value under setting [3] amounted to 22.7 nM.
For “UAUUUGCAAGCGAGAUCCCACAUGAGGAUCACCCAUGUGCUCGUCUUAUAAGGUACUGUGACGAUAGUCACGGUACC [Mat - Sensor, turn-off var - Eli Mod - D89] (Eterna round: R97, puzzle: Sensor, turn-off variant 1)”, the “apparent KD of MS2 coat protein” value runs as follows: (input ligand: FMN 200 uM) 14 nM; (input ligand: none) 14.4 nM.
With “CGCUGGACAGGAUAUGUUUUUGGGCACUUGAGGAUCACCCAAGUCAUCAAGAAAACAGGCACAGAAGGGUUUAUGG [salish99_ex5_r4_022(!)] (Eterna round: R97, puzzle: Exclusion 5)”, the “apparent KD of MS2 coat protein” value was 28 nM (input ligand: FMN 200 uM) and 25.1 nM (input ligand: none).
On the same counts, the results for “GCCGAAAAUGUGAGGAUAUACCUAUGGAAACAUAGGUAGAAGGCACAUGAGGAUCACCCAUGUUCCUCAUCGGC [Mat - Exclusion 4 - Eli Mod - D17] (Eterna round: R97, puzzle: Brourd's mod of Exclusion 4)” are 729 nM and 120 nM.
